From paper PMC6722581 come the findings set out here.

For orientation: Kd means the free concentration of one partner at which half of the binding sites on the other are occupied at equilibrium, for simple one-to-one binding. Higher therefore signals weaker binding. What is called koff is a measure of how fast the partners let go of each other. A low value points to slow dissociation. Broadly, the kon is a measure of how fast the partners come together. Read a low kon as slower complex formation.

Experiment [1] concerns the target head domain of measles virus hemagglutinin, Edmonston vaccine strain (measles virus, Edmonston strain) (UniProt P08362). Description: SPR.
For experiment [2], the target named is head domain of measles virus hemagglutinin, IC-B wild-type strain (measles virus, IC-B strain) (UniProt Q786F2). Description: SPR. For orientation: SPR reads the build-up and loss of mass on a sensor chip optically.
Chain of UniProt Q786F2 (Q786F2 149-617): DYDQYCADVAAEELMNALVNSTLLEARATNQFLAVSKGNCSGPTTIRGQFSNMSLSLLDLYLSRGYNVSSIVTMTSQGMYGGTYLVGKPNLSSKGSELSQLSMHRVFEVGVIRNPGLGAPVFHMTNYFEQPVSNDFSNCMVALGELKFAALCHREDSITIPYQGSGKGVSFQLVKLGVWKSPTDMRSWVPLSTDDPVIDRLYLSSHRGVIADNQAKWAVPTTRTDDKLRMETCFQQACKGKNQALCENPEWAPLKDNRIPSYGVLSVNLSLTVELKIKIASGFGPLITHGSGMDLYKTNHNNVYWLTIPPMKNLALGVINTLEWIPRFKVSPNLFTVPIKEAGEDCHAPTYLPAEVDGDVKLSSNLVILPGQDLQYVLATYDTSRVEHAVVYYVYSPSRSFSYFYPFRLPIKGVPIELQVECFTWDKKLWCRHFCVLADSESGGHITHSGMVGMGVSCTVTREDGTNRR

Chain of UniProt P08362 (P08362 149-617): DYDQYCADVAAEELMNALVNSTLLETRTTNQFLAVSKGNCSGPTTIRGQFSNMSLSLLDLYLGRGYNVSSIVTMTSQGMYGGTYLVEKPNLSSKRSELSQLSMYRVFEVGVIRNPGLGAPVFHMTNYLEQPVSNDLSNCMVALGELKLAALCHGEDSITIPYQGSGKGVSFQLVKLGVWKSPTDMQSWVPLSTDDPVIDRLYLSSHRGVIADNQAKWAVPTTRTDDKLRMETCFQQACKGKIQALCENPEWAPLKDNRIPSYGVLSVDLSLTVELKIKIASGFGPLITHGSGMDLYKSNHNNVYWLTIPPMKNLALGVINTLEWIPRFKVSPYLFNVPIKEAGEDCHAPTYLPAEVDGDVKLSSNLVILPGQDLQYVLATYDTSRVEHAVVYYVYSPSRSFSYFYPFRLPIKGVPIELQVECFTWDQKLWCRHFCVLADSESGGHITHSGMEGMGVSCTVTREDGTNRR

As for “soluble human SLAM, chimeric protein of a human V-set with a mouse C2 domain (domain or fragment)”, in experiment [1], the Kd stood at 60.8 nM, the koff worked out at 0.00291 s⁻¹ and the kon was 47900 M⁻¹ s⁻¹. In experiment [2], this substance displayed a Kd of 448 nM, an off-rate (koff) of 0.00637 s⁻¹ and a kon of 14100 M⁻¹ s⁻¹.
